Test results from publication doi:10.1101/2020.07.01.182063.

Key:
Assay in all cases: fluorescence polarisation
[1] = biological target: HIM-3 closure motif peptide phosphorylated at Tyr279 (C. elegans)
[2] = biological target: HIM-3 closure motif peptide with the S282A substitution (C. elegans)
[3] = biological target: HIM-3 closure motif peptide, unmodified (wild type) (C. elegans)

Kd [1]: 16.1 µM
Kd [2]: 11.3 µM
Kd [3]: 5.8 µM
Substance: HTP-2 protein (full length) (natural protein)
